Test results as given in patent US20240181058A1, “[…] ANTIGEN RECEPTOR TARGETING ONCOLYTIC VIRUS-DERIVED PROTEIN, […], AND USES OF BOTH” (priority 2021, published 2024).

B1: Ab18 (protein)
scFv: QVQLVESGGGLVQPGKSLRLSCAASGFTFSTYGMTWVRQAPGKGLEWVSGISGGGSSTNYADSVKGRFIISRDNSNNTLYLQMNSLRAEDTAVYYCARWGVMLSFDYWGQGTPVTVSSGLGGLGGGGSGGGGSGGSSGVGSDIQMTQSPSTLPASVGDRVTITCRASYSVSPWLAWYQQKPGKAPKLLIYKASTLESGVPSRFSGSGSGTEFTLTISSLQPDDFATYYCQQFNSYMMYTFGQGTKLEIK
modifications: amino acid sequence for anti-UTTA scFv (Ab18)
B2: Ab16 (protein)
scFv: QVQLQQSGPGLVKPSQTLSLTCAISGDSVSSNSAAWNWIRQSPSRGLEWLGRTYYRSKWYNDYAVSVKSRITINPDTSKNQFSLQLNSVTAVDTAVYYCAKSYAGPISYYYYGLDVWGQGTTVTVSSGLGGLGGGGSGGGGSGGSSGVGSQSALTQPASVSGSPGQSVTISCTGTSSDIGRYNLVSWYQQHPGKAPKLMIYGGSKRPSGVSNRFSGSNSDNTASLTISGLRAEDEADYYCSSYASSSTPYVFGTGTKVTVL
modifications: amino acid sequence for anti-UTTA scFv (Ab16)
B3: Ab13 (protein)
scFv: QMQLVESGAEVKKTGSSVKVSCKASGDTLTYRFLHWVRQAPGQAPEWMGWITPFNDNTNYAQKFQDRVTITRDRSMSTAYMELSSLRSEDTAVYYCATGGGNNYYGMEVWGQGTPITVSSGLGGLGGGGSGGGGSGGSSGVGSSYELTQPLSLSVSPGQTASITCSGDKLGDKFTSWYQQQPGQSPVLVIYQDAKRPSGIPERFSGSNSGSTATLTISGTQSMDEADYYCQAWDSSSVVFGGGTKLTVL
modifications: amino acid sequence for anti-UTTA scFv (Ab13)
B4: Ab19 (protein)
scFv: QVQLVESGAEVRRPGSSVKVSCKTSGVTFSGYVLSWVRQAPGHGLEWMGRIIPLIDVENYAREFQGRMKITADKSTNTVYMELNNLRSEDTAVYYCAKSVVRGLDYYYYGFDVWGQGTTVTVSSGLGGLGGGGSGGGGSGGSSGVGSSYELTQPPSLSVAPGKTARITCGGNNIGSKSVHWYQQKPGQAPRLVTYYDGNRPSGIPERFSGSNSGNTATLIISRVEAGDEADYYCQVWDSSSDQGVFGTGTKVTVL
modifications: amino acid sequence for anti-UTTA scFv (Ab19)

Molecular target: protein A56 (Vaccinia virus, UniProt Q01218)

| Molecule | Western blotting, binding affinity in a two-dimensional structure using PAGE | Western blot band on denatured protein |
| --- | --- | --- |
| B1 | linear multiple bands were identified | – |
| B2 | linear multiple bands were identified | many weak bands with small sizes were observed or no band was observed |
| B3 | binding did not occur | many weak bands with small sizes were observed or no band was observed |
| B4 | a linear single band was identified | many weak bands with small sizes were observed or no band was observed |
